Legend:
[1] = molecular target: human CXCR6[DRF] (CXC-chemokine receptor 6, wild type with the DRF motif) (human, UniProt O00574 1-342); test: cell-based or functional assay
[2] = molecular target: T1, human CXCR6[DRY] (DRF motif mutated to DRY) (human, UniProt O00574 1-342, DRF to DRY (F128^3.51)); test: cell-based or functional assay
T1 sequence (looked up): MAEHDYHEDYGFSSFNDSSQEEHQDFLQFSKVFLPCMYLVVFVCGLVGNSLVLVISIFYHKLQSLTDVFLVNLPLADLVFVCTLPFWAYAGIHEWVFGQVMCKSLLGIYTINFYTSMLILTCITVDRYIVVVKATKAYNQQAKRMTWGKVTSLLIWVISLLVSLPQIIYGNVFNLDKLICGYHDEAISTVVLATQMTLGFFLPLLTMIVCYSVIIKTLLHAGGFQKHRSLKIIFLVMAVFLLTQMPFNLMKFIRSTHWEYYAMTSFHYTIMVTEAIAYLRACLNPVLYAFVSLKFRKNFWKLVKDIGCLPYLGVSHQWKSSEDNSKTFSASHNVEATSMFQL

B1: human CXCL16-Fc fusion protein (Fc fusion, UniProt Q9H2A7 30-205, looked up)
chain: NEGSVTGSCYCGKRISSDSPPSVQFMNRLRKHLRAYHRCLYYTRFQLLSWSVCGGNKDPWVQELMSCLDLKECGHAYSGIVAHQKHLLPTSPPISQASEGASSDIHTPAQMLLSTLQSTQRPTLPVGSLSSDKELTRPNETTIHTAGHSLAAGPEAGENQKQPEKNAGPTARTSAT
[1]
  adhesion of THP-1 cells expressing the receptor to immobilized CXCL16-Fc for 30 min, normalized to cells adhering to anti-human-Fc: ~4 fold
  adhesion of THP-1 cells to immobilized CXCL16-Fc for 5, 15 and 30 min, CXCR6[DRF] cells compared to CXCR6[DRY] cells: 2 fold
[2]
  adhesion of THP-1 cells expressing the receptor to immobilized CXCL16-Fc for 30 min, normalized to cells adhering to anti-human-Fc: ~4 fold
